# T1: αENaC (Rattus norvegicus, UniProt P37089+P37090)
# T1 construct: expressed in transfected cells; host or cells: Xenopus oocytes
# T1 sequence (P37089 1-698): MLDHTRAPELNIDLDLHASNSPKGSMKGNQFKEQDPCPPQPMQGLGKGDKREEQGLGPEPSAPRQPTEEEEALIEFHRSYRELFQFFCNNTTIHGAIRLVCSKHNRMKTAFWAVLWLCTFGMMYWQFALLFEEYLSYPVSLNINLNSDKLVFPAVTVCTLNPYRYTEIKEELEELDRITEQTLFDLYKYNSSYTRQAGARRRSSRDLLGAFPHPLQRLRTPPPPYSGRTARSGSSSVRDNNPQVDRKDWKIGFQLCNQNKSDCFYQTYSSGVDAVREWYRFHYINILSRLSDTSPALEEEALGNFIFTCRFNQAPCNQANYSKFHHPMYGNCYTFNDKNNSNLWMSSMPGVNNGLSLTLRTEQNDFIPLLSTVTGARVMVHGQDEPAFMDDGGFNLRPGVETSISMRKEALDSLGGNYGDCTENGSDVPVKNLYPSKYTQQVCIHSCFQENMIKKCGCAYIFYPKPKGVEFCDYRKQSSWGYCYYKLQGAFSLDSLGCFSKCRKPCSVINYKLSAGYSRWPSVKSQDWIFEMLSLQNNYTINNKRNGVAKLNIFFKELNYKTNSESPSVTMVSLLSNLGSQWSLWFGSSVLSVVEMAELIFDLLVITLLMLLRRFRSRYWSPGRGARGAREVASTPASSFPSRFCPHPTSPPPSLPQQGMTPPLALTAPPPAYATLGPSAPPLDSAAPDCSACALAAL
# T1 sequence (P37090 1-638): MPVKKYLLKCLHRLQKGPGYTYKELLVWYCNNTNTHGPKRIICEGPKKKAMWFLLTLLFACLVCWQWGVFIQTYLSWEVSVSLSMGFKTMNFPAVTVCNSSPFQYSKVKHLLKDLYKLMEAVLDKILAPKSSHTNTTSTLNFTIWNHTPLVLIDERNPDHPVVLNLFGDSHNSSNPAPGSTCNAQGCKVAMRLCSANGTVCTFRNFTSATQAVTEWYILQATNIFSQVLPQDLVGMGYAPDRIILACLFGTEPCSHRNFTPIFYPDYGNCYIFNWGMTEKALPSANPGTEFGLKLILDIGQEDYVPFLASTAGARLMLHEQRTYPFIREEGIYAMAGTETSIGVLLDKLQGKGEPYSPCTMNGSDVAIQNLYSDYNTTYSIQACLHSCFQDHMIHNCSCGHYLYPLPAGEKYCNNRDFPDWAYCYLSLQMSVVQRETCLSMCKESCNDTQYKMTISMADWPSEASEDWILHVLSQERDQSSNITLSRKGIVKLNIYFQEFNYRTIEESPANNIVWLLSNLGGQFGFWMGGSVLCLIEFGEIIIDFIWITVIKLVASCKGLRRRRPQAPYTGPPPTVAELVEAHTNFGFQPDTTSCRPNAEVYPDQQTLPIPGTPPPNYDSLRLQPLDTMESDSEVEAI
# T1 sequence (P37091 1-650 partner): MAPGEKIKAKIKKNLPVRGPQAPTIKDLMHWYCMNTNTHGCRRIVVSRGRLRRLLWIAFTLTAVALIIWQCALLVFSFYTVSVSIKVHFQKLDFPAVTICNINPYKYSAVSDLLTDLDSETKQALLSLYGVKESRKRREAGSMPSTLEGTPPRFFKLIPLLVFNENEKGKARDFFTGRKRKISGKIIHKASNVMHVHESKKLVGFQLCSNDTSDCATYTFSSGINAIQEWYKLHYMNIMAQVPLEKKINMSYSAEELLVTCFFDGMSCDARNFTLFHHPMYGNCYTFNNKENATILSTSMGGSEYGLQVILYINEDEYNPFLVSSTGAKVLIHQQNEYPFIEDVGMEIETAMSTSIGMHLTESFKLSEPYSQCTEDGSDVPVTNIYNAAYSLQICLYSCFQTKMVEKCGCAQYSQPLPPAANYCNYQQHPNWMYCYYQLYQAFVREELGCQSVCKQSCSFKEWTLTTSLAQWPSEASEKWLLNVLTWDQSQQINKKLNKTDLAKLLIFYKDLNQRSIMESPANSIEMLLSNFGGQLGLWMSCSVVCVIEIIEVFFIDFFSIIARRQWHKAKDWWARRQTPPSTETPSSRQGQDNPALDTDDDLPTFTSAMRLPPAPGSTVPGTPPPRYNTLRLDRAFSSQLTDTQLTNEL
# Columns and labels:
# [1] = test system: serine proteases; assay: Endogenous protease activity (BGAR-MCA cleavage) on mucosal surface of human bronchial epithelial cultures; format: cell-based
# Experimental: For cell-free assays, reactions were carried out in 50 μl Ringer in a 96 well plate format with 100 μM BGAR-MCA. To measure endogenous protease activity in human bronchial epithelial cultures, 30 μl Ringer with 100 μM BGAR-MCA were placed directly onto the mucosal surfaces of human bronchial epithelial cultures grown on 12 mm T-clear inserts and the cultures were assayed in 12 well plates.
# [2] = target: T1, αENaC; assay: Surface biotinylation of αENaC in Xenopus oocytes; format: cell-based; conditions: coexpression with SPLUNC1
# Experimental: The effect of SPLUNC1 on the number of ENaC channels in the plasma membrane was tested by expressing SPLUNC1 and αENaC in Xenopus oocytes. After surface biotinylation of αENaC, total lysate was prepared and lysate from 3-4 eggs was separated on a 10% gel.
molecule,measurement,setting,value
"SPLUNC1: human SPLUNC1 (SEQ ID NO:1), 256 amino acid secreted PLUNC family protein; rSPLUNC1 is the purified V5/6His-tagged recombinant form (protein, listed as Homo sapiens, V5/6His tag in recombinant form, rSPLUNC1 is the purified V5/6His-tagged recombinant form) MFQTGGLIVFYGLLAQTMAQFGGLPVPLDQTLPLNVNPALPLSPTGLAGSLTNALSNGLLSGGLLGILENLPLLDILKPGGGTSGGLLGGLLGKVTSVIPGLNNIIDIKVTDPQLLELGLVQSPDGHRLYVTIPLGIKLQVNTPLVGASLLRLAVKLDITAEILAVRDKQERIHLVLGDCTHSPGSLQISLLDGLGPLPIQGLLDSLTGILNKVLPELVQGNVCPLVNEVLRGLDITLVHDIVNMLIHGLQFVIKV",BGAR-MCA cleavage on human bronchial epithelial mucosal surfaces,[1],no significant affect
same,plasma membrane ENaC (surface biotinylation),[2],decreased

# Reference: US9127040B2, “Regulation of sodium channels by PLUNC proteins” (The University of North Carolina at Chapel Hill, priority 2011, dated 2015)
